{
  "source": "patent US20090010961A1",
  "assay_in_all_cases": "cell-based or functional assay",
  "key": {"[1]": {"biological_target": "E protein of wild-type DEN-4 1036 virus (dengue-4 virus, strain 1036) (UniProt P09866)"}, "[2]": {"biological_target": "E protein of wild-type DEN-1 16007 virus (dengue-1 virus, strain 16007) (UniProt P27909)"}, "[3]": {"biological_target": "E protein of wild-type DEN-3 16562 virus (dengue-3 virus, strain 16562) (UniProt P27915)"}},
  "data": [
    {"substance": "monoclonal antibody 3H5 (specific for DEN-2 E protein)", "values": [
      {"measurement": "Reciprocal serum dilution-plaque reduction neutralization titers (50% endpoint) (reciprocal dilution)", "setting": "[1]", "result": "< 20"},
      {"measurement": "Reciprocal serum dilution-plaque reduction neutralization titers (50% endpoint) (reciprocal dilution)", "setting": "[2]", "result": 20},
      {"measurement": "Reciprocal serum dilution-plaque reduction neutralization titers (50% endpoint) (reciprocal dilution)", "setting": "[3]", "result": 40}
    ]}
  ]
}
